Nine substances from publication PMC3773880 can be followed below.

A word on the Ki: it is a measure of affinity in units of concentration, obtained from inhibition or displacement.

The target in assay [1] is low molecular weight gingipain R (RgpB) (Porphyromonas gingivalis) (UniProt P95493). The assay can be described thus: enzyme inhibition kinetics.
Assay [2] concerns the target high molecular weight gingipain R (HRgpA) (Porphyromonas gingivalis). The experiment in a line: enzyme inhibition kinetics.
Assay [3] has the same target.

Where only a bound is given, the exact number is not on record here.

In assay [1], PD_(RgpB) R66A (domain or fragment) displayed a Ki of 4.9 nM.
Substance “PD_(RgpA), recombinant N-terminal prodomain of RgpA (from UniProt P28784 24-227) (domain or fragment)” came in with a Ki in assay [2] of 0.85 nM.
Turning to PD_(RgpB) R102A (domain or fragment), the Ki in assay [1] is greater than 5000 nM.
On to PD_(RgpB) R159K (domain or fragment), for which, in assay [1], the Ki was determined as 7.7 nM.
For PD_(RgpB) R102Q (domain or fragment), in assay [1], the Ki is greater than 5000 nM.
On the same count and under the same terms, the value for PD_(RgpB) R102E (domain or fragment) was greater than 5000 nM; that for PD_(RgpB) R102K (domain or fragment) was 45.6 nM.
The same measure, in the same setting: then PD_(RgpB) R66K (domain or fragment), with 31 nM.
In assay [3], “PD_(RgpB), recombinant N-terminal prodomain of RgpB (from UniProt P95493 25-229) (domain or fragment)” yielded an IC50 of inhibition of amidolytic activity (L-BAPNA), 10 nM enzyme of 12.6 nM; an IC50 of inhibition of aminopeptidase activity (H-Arg-AMC), 10 nM enzyme of 4.9 nM; an IC50 of inhibition of proteolytic activity (Azocoll), 10 nM enzyme of 5.8 nM. The substance also registered a Ki in assay [2] of 5.3 nM.
